Source: paper PMC6547619, “Development of an anti‐BAG3 humanized antibody for treatment of pancreatic cancer” (Molecular Oncology, 2019)

Key:
Conditions in all cases: both partners purified
[1] = biological target: T1, human recombinant BAG3 protein (Homo sapiens, UniProt O95817); experiment: ELISA; direct ELISA; plates coated with human recombinant BAG3 (1 μg/mL in PBS); humanized antibodies in scalar dilutions, 500 to 15.6 ng/mL; HRP anti-human IgG, O.D. 450 nm
T1 construct: the cleavage released the full-length polypeptide; The ELISA methods say only 'human recombinant BAG3 protein'; For the flow cytometry it was labelled with FITC (FluoroTag FITC conjugation kit); also called rBAG3; full-length BAG3; not shown: biotinylated tag (AviTag, from the vector pAViTag-N N-His SUMO), N-terminal, cleaved; His, N-terminal, cleaved; SUMO, N-terminal, cleaved

E. coli rBAG3 (Abcam) [2] = biological target: T2, E. coli rBAG3 (Abcam) (Homo sapiens (assumed; species of …, UniProt O95817); experiment: SPR; Biacore 2000, 25 °C; humanized variants captured on an anti-human Fc antibody covalently coupled on a CM5 chip; rBAG3 flowed at variable concentrations
T2 construct: BAG3 (BCL2-associated athanogene 3), recombinant, made in E. coli, bought from Abcam; Antigen of the SPR experiments only; no catalogue number is printed; also called antigen; source: bought: Abcam (E. coli rBAG3)

E. coli rBAG3 (Abcam) [3] = biological target: T2, E. coli rBAG3 (Abcam); experiment: SPR; Biacore 2000, 25 °C; AC-2 captured on an anti-mouse Fc antibody covalently coupled on a CM5 chip; rBAG3 flowed at 0.39 to 200 nM; 2-state reaction model
murine rBAG3 = biological target: T3, murine rBAG3 (Mus musculus, UniProt Q9JLV1); experiment: immunoprecipitation; BAG3-H2L4 used to immunoprecipitate murine rBAG3; immunoblot with a rabbit polyclonal anti-BAG3
T3 construct: the cleavage released the full-length polypeptide; also called murine form of BAG3; not shown: biotinylated tag (AviTag, from the vector pAViTag-N N-His SUMO), N-terminal, cleaved; His, N-terminal, cleaved; SUMO, N-terminal, cleaved
T3 sequence (Q9JLV1 whole entry): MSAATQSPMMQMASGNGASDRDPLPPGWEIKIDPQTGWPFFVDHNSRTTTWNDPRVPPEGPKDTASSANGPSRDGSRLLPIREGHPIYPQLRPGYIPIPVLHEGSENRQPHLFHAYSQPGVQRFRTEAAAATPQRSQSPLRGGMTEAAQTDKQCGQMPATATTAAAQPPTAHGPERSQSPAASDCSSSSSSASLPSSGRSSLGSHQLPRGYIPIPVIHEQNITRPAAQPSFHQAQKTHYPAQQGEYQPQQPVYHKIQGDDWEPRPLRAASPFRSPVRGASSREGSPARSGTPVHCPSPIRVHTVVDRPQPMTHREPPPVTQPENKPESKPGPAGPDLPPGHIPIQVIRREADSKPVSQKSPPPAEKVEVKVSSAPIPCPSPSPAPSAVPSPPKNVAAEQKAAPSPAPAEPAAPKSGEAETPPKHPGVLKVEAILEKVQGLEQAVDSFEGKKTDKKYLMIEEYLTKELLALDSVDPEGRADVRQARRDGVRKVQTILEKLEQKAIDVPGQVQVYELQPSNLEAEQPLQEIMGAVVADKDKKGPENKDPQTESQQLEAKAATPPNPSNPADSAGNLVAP

T2 sequence (O95817 whole entry): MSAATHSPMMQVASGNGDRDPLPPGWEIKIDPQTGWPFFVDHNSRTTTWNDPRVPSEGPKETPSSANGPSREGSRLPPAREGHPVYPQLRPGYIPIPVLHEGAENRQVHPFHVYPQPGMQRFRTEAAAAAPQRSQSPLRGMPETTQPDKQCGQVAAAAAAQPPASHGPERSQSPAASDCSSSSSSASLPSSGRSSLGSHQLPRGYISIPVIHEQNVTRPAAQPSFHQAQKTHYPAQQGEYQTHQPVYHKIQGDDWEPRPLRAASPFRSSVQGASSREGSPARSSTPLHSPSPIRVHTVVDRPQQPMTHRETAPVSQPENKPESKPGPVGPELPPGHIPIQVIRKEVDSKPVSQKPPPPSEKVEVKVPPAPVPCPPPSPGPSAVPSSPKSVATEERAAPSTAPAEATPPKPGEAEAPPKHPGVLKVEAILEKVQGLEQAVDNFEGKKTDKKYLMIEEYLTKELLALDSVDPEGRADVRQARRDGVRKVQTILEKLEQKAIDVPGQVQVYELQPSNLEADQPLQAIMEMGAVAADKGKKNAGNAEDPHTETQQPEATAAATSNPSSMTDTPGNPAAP
T1 sequence (O95817 whole entry): as above

binding result [1] | binding result (E. coli rBAG3 (Abcam) [2]) | Kd (E. coli rBAG3 (Abcam) [3]) [nM] | binding result (murine rBAG3) | Binder
binds | binds | – | – | BAG3-H4L2 (antibody, V domains shown, humanized heavy chain variant H4: CDRs of AC-2 (humanized light chain variant L2: CDRs of AC-2 (IgG1, kappa)); source: CHO, transiently transfected, purified from supernatant (Protein A FPLC), Evitria AG) VH: EVQLVQSGAEVKKPGATVKISCKVSGFNIKDTYMYWVQQAPGKGLEWMGGVDPANGNTRYDPKFQGRVTITADTSTDTAYMELSSLRSEDTAVYYCARDGAMDYWGQGTLVTVSS VL: not shown
– | – | 14.4 | – | murine anti-BAG3 antibody AC-2 (antibody, V domains shown, murine heavy chain; murine light chain; also called mAb AC-2; anti-BAG3 clone AC-2; source: mouse hybridoma clone AC-2 (supernatant in the peptide ELISA)) VH: EVQLQQSGAELVKPGASVKLSCTASGFNIKDTYMYWVKQRPEQGLEWIGGVDPANGNTRYDPKFQGKATLTADTSSSTAYLQLSSLTSEDTAVYYCGRDGAMDYWGQGTSVTVSS VL: DIVMSQSPSSLAVSVGEKVTMSCKSSQSLLYSSNQKNYLAWHQQKPGQSPKLLIYWASTRESGVPDRFTGSGSGTDFTLTISSVKAEDLAIYYCQQYYTYPLTFGAGTKLELK
binds | binds | – | binds | BAG3-H2L4 (antibody, V domains shown, humanized heavy chain variant H2: CDRs of AC-2 (humanized light chain variant L4: CDRs of AC-2 (IgG1, kappa)); also called humanized anti-BAG3 antibody; humanized BAG3-H2L4 antibody; source: CHO, transiently transfected, purified from supernatant (Protein A FPLC), Evitria AG) VH: QVQLVQSGAEVKKPGASVKVSCKASGFNIKDTYMYWVRQAPGQGLEWMGGVDPANGNTRYDPKFQGRVTLTRDTSTSTVYMELSSLRSEDTAVYYCGRDGAMDYWGQGTLVTVSS VL: DIVMTQSPDSLAVSLGERATMSCKSSQSLLYSSNQKNYLAWHQQKPGQPPKLLIYWASTRESGVPDRFSGSGSGTDFTLTISSLQAEDLAIYYCQQYYTYPLTFGAGTKLEIK
